The values below come from the domain aggregation screens of Martell et al. (2025).

The series is described as follows: soluble fraction after stress (log2 fold change); higher = more stays soluble; pooled small domains, quantitative proteomics. The settings on record: stress: pH 4. In outline: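 Small protein domains from pooled custom libraries were exposed to pH 4, then quantified with high-throughput quantitative proteomics. The fold change in how much of each domain remains soluble is read as aggregation propensity. It is given as log2, with higher values meaning more stayed soluble.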
For the sequence “HMRLPNGYGGVTKLSGRRRKPYMVRKTIGWHIDEKTDKKVQDYVVIGYAATKSEALQMLADYNNNPFDV”, the “soluble fraction (log2)” value is 0.0101.
Regarding “HMRLSVVDLQDSLRGLEYPAGKGDLINHAREHNASADVIAVLEQFSERTYRSAADVGEEFGRV”, the “soluble fraction (log2)” value is -0.166.
Regarding “HMRLTIAQLSEKTGVPERTIRYYIDRGLVPSAHGERRGAWYDTVHLEPLLRIQQWREAGLSLEAIADLLR”, the “soluble fraction (log2)” value was -1.17.
Turning to “HMRMLLEERLDEIVKIVNERGSISNQELVKMFGASESTIRRDITTLANDNRVIRVHGGAMSVVS”, the “soluble fraction (log2)” value was -0.387.
For the sequence “HMRMTLKNKVEDIVHILRKDKQTSLSAILGDNTDRIQTIVVFLAILELVKQHLIKTDQNANFGDINLFPED”, the “soluble fraction (log2)” value came out at 0.134.
Turning to “HMRNLFWTEAQNAQNELNAMRINALTQSIRRIEPNFRGIPSLRDPNRPIPNEEVRDYENYLNRILP”, the “soluble fraction (log2)” value is 0.126.
For “HMRNMRKLWIARINAAARMNDISYSKLMHGLKLANVEINRKMLSEMAIDDPKSFTALVETAKKALNG” the value was 0.303; for “HMRNPLYAQVADYVMQQIAAGTYRPHQAIPTEWQLAKKLEVSQGTVRKGLDELVFKQILYRQQGVGTFVAD”, 0.0353.
In the case of “HMRPAAELGLPHAPKHFIQYLTEDDRPQVLKDVDYEGGMGVSIGRLREDSIFDWKFVGLAHNTL”, the “soluble fraction (log2)” value is 0.0686.
As to “HMRPADTAAMLKYLSSGAVKGIGGALAGRIIEAFGDESIKVIEEDPARLATVKGITLKKAKEISEEMQRVN”, the “soluble fraction (log2)” value is 0.0199.
Take “HMRPEFVVALSGADLGKLHRLYELGEVLSREDDAEGVTHAVLRVPDKHEHAFHAEFPQARPM”: the “soluble fraction (log2)” value is -0.19.
As for “HMRPIDEVFGFFSRPENLTVITPSNLHFNILTPRPLEMKQGAVIDYTIKIFKVPIHWRTLITTYDPPFKFV”, the “soluble fraction (log2)” value is -0.399.
For “HMRPILTLEEAKAKALAHAGLKADQVTFTEAKLDWDDGKQVYDIEFYTADFKEYDYEIDAKTGEVLEVDY” the value was 0.0375.
Consider “HMRPKAIFVDVDDTLVRSVGQTRIPMPAVIAHIRRLHDAGHQLYLWSSGGADYARASAEELGIGQYFQAFL”, for which the “soluble fraction (log2)” value was -0.32.
On to “HMRPRWTEQEVERAKAIKMIYPNAYRLESSDVFVQVWSKEEILLAHVEVDMFPSLRPGQPVELDEIIG”, for which the “soluble fraction (log2)” value is -0.114.
For “HMRPTAWDQISDWLDRHGSIANADVVRIAGLDTLKASKLLTTWREQGLLEPLPGRGKRNMAYVRAI” the value was 0.12; for “HMRPTVNETQIREVFRSILGREVDPEGLRHYLGQAAKGWSIDQIRADVNNSQEAHQRRAELARQAEELK”, -0.217; for “HMRQDEKTLLYWIAGHLKREGRQITERSARHLVEQVGTDMENLSREMEKLIAYTMGRTEITGQDIDDI”, -1.21.
In the case of “HMRQEIIEDSRKLLEESLKRYDLTYQEFIDTLKSKNMNVESTLINIIKNQSSLDLVLRNLGLIAP”, the “soluble fraction (log2)” value was -0.869.
Turning to “HMRQISDPTALASMVDKVIEDNPSAVADYRRGESKALGFLIGRVMQSSGGKANPKMIRGLLVKNLES”, the “soluble fraction (log2)” value stood at 0.371.
Consider “HMRQMIIIMQKQAAASSVAAVVEFIRSKGLREHISPGAERTIIGAVGDERVFLPQELESLPQVERAIRVL”, for which the “soluble fraction (log2)” value is -0.85.
The figure for “HMRQPAAVEYSTFLDWVHASQVERVVFEGDTIRGVRVTGEGFVTYSPETDNTALIGELKKSRVQISATAP” is 0.311.
For “HMRQQAFWALVPEERDVLDETGAPLFRIGPTAWALVIEDRGEVFVVRDEDGRVGYLHEVDGVTR”, the “soluble fraction (log2)” value was -1.94.
Take “HMRQQLAEILQKAVDNLPEAQRLVWLLRDKSDMTFKEIAEDLQLTEANVRVLLHRARLKLLAVINQYEE”: the “soluble fraction (log2)” value is -0.115.
For “HMRQYKEMPYRLFLIHLGKGLVDEVELSDKAKLTGKLKNGKIFITDNPRTENFKEQLLLHDVKVKEG”, the “soluble fraction (log2)” value was -0.133.
Take “HMRQYTPEQLETAVLVLEEVRQGRRLDRALRSHPMPDGRLIAKHVLVAAYRKLVAEGTWKEDPEFLSRIRM”: the “soluble fraction (log2)” value turned out to be 0.116.
On to “HMRRADRLLQLIQILRRHRRPVTGDVMARELEVSLRTVYRDIATLTIEGVPIRGEAGVGYVLGEGY”, for which the “soluble fraction (log2)” value came to 0.211.
